# Source: the DeepSol protein solubility set
# Assay: soluble on expression in E. coli; label from the status in PepcDB or PDB records
row,Sequence,soluble on expression in E. coli
1,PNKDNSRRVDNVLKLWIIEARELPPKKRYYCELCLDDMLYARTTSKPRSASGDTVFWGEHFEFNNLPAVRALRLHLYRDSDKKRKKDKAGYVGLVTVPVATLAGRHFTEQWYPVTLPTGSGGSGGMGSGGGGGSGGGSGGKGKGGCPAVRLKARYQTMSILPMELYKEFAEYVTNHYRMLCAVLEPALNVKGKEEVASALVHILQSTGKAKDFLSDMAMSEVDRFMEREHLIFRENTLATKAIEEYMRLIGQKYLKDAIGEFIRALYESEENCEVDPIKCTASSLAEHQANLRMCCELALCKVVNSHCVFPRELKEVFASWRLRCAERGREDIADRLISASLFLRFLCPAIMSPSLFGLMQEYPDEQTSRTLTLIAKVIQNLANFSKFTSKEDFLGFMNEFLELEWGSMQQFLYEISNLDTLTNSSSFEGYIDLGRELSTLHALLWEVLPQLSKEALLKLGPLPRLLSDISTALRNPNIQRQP,soluble
2,MKKNLLLLLCLFCLVNVCHAKAKDTFTVFQLNLWHGCTKVPNGDQGIIDVLDQMDADVVFLCEIRDGKQFIPHVIEELEKRGKHYYGETFDLAIGVLSKFKPDSWTKCCIVPGDEGRAMVKMVATIEGQPVSFYSCHLDYRHYQCYMPRGYNGTTWKKMDKPITDEEEVLKANRQSFRDETIRAFIQEVQSDIQQGRPIIMGGDFNEPSHLDWQADTKDLWDHNGAIIHWDCSMMLSKAGFKDAYREKFPNTVRYPGFTFPAGNKLAEEAKLEKLAWAPEADERDRIDFIYYYPLESMLSMKDSKLVGPSETVVRGKITENDSKDKILTPSCIWPSDHKGNLATFKIRKKRLEHHHHHH,not soluble
3,MSLRSYDGQLVYNPVEENGVMVGQTVYKMNGSTLANYMKYNYKYDDNKRMIESETLKWNSTKEEWEKDLRINYTYEGKTVTTNYYKWNNKKRAYVLVPEMTVTMDNTNEGHHHHHH,soluble
4,MGGSHHHHHHGMASGSPPTQPSPASDSGSGYVPGSVSAAFVTCPNEKVAKEIARAVVEKRLAACVNLIPQITSIYEWKGKIEEDSEVLMMIKTQSSLVPALTDFVRSVHPYEVAEVIALPVEQGNFPYLQWVRQVTESVSDSITVLP,soluble
5,MAITEFDTSLPSIRQLQNLIKQAAPVEIKLVTGDAITGRVLWQDPTCVCIADENSRQTTIWKQAIAYLQPKG,soluble
6,MSLKYGIIGAGAMGYRYGVMLQENAGVDVDFIDTWGPNVAKVREQGGVDVARDHQNHHVVPINIYYPEEYQGHPDVWIVFKKQMQLADELKRDASLFHEDQYVFAAMNGMGHFEKIAQYFPENHIIGGTAMIATVLNGPGTVDFMGPKGSEAMHMSKYAGHIDTTTKQVMADFKAADLNPIWSDNFMGMCMSKVVFNAVTNSLCTMFEIQMGQFIEYPGVKDMATQMFNEAYDACERAGIKLIETRQEEIDSVETVSRAYKYHYPSMYQDFSKGRPTEVDYINGYIAKIGREHDYVCRVHEFVTHEVHLAEMMRQYRHPEIPVAEKEGHHHHHH,not soluble
7,MSEEDWPSPKFREHVIQRLEPELARNRQNAPNLPVPGDARQVEEYVFAKCMSKDEYMRTIAKVINAINCNSKSAAVPSVLQPSQFHSPPCTTAGNTPAGGTPGYRAPVPPDPQPTSAQARNPPVTVATTQASTTPSAPNPPGGLPAPSASATAAVAAAVASFPSPDTSIRPGGQITPGSQAPGGGPTPAPNVPFPNGSSQMNGGPAMGQPPPQMGAPNMGGPPNGYGGYGMMNGPPGSGAPMGGNPYNQQIKKDMDQARPWDPSAHMYQQQPQWGAMPPQQPHGYPGRPMNGQGATPTGPSSVLESLINQPQQYPGHHNQMGPPGDRNVAAQRAAAQQQQQQQQQQQQQRPGMVPNQGMMSSEDQTVYSAKLRNMRGSCDSLRTRARQCRHEGNHEAAHKLEVMLSVLEGKRVVSLEYLNHLEMWIARKQDFLNIAPMSQNQNHMGMNDPMMNGEHAMLGNGQVPNPYGGHPGYGHQQYMGPPPPHMQMHQPPMWHQQQHQQQQRMMPQDHMMMQGGGGPVHGMYRGDMGHDPMTSPVNNHRHAPYPNPAAMRNNMRMPNGPGPIGRDRNSMSGSSMSGPSSGAPSMNPMGTPNQKMGTPGSMGGMSGLDDLNYDDFLPNPTPIDALQPTLHVGQNSMNAGPPVQRSNLNETARKELQILDARFEIDPNHQRHDANHIIVVCKIRNQQFPPLRLVVPTTYPAGNVTVDRAVIDLDAYLYDDLQNSVYERLSRPGLSSITDYLNAWEEQVNQYQNQTSGGLDVAFNVGNDFFYDNLNL,not soluble
8,MQNAVKLDEIDHKIMNLLYENARISVSEIGRIISMTQPAVKERINKLEDQGVIAAYRTKFEPSKINKNIQAFIMFKTSQCSDFIQFCNAAPEVTDLYRISGEFNYMMKVMSDSMDSLAAFLDSLMQFGLSSPLIVLKSEFEEKLSF,soluble
9,MAHHHHHHMASVSSGVPLTAPSAQKLLQSVKYILLDVDGVVWSGPRVLPNIPQTLQYLRSLGKEIRFLTNNASVSRSSLAQLFRQRGIEGVKESEVYNSGYAAALRLRRICGAAEGNQERQEGNEPTSDKRLVRGNVFVIGEEGLHEELQRVLAPGYITYGMELHDAEKVGGYNSANAATAWKERILPAPLRQLKPPDGITDYGRGISLTDLSPVAVVVGLDLHFNMLKLAYASLCLHRGAGSNTDSEGDRIGGDRDRTPDKGLQKPVCFIATNEDPQIPIGEEGLLLPGAGGMVSALRTVSGRNPDAVCGKPHVDMARIMFEAEGITDARQCLMVGDRLTTDIAFGNAAGCRTLFVLSGAESMADIARAKSTGDSQLLPEFVAPSLASLMPDARDD,soluble
10,MGSDKIHHHHHHMQNTDIVVIGSGIGGLSCAALLARYGFDVIVCESHSIAGGAAHGFERNGFKFDSGPSLYSGLSYSPSANPLRQVLDAIGSELPCVTYDTWGCCLPEGDFDTAVGAEQFCEVLMKFCGDDAVAEWQELQRVMEPFARAATSIPPAALRFDFGAARTVGPFVPSLTKNVANIIKLTGPFSRIMDGVVKDSFTRNWLNLLCFLLSGLPADGTSAAEVAFMFADWYRPDAILEYPIGGSSALVDSLVQGLERHGGKLMLGAHVEEVLVEGNRAVGVRLRDRSEIRAKLAVISNASVWDTLKLLPEKAIPKQYRSKRQATPECDSFMHLHLGIDAQGLQSNLRCHYIVVNNWELGVTAPQNVVVISIPSVLDPSLAPAGKHVIHVYTPGNEPYSFWQGMDRRSQEYAEQKRSRAEVMWQALERIIPDIRSRCEVTLVGTPLTHERYLRRHQGSYGPAIQAGSGMFPSPSTPLPGLMCCGDSTFPGIGLPAVAASGLIAANTLAPVNKHLAMLQDINCI,not soluble
11,KPYTIDKANSSVWFEVKHFKFNETRGVFDSFDGKIDADPNTKALNVFEGKIDIKSINTRNKKRDDHLKTAEFFDVVKYPKGSFKMTKYEDGKIHGDLTLHGVTKPVVLEAKIQAPLQNPMNKKEFMVLQAEGKINRKDFGIGKTFSDAVVGDEVKIELKLEAYA,soluble
12,GAKPERGRFLHFHSVTFWVGNAKQAASFYCSKMGFEPLAYRGLETGSREVVSHVIKQGKIVFVLSSALNPWNKEMGDHLVKHGDGVKDIAFEVEDCDYIVQKARERGAKIMREPWVEQDKFGKVKFAVLQTYGDTTHTLVEKMNYIGQFLPGYEAPAFMDPLLPKLPKCSLEMIDHIVGNQPDQEMVSASEWYLKNLQFHRFWSVDDTQVHTEYSSLRSIVVANYEESIKMPINEPAPGKKKSQIQEYVDYNGGAGVQHIALKTEDIITAIRHLRERGLEFLSVPSTYYKQLREKLKTAKIKVKENIDALEELKILVDYDEKGYLLQIFTKPVQDRPTLFLEVIQRHNHQGFGAGNFNSLFKAFEEEQNLRGNLTNMETNGVVPGMAENLYFQ,soluble
13,MVGNPALAELLRAPRLIPWRNWSGAQSCLPLAREAPKDLDELVRIIRQASGRIRPVGSGHSFSALVPTDGTLLSLAYFSGLLSHDSVTLQAEFGGGTPMSQMGAPLKEIGQALVNMADIDYQTLAGAIATSTHGTGVGFGSYSAQVRGLQLVTASGEVLECDAKRNVEVFDAARVSLGALGVVTRVRLQNRAAYRLRERQWIARTEELLEDVEKNTRENQHWEMLVVTHSDYALSIALNETDEPKTPPLDPAKEGGNEFVGLIEGLDKYLSDFPETRRTLLNSLRHFARFDERVDDSYAVYANVRNVRFNEMEYSVPAEHGPACLREILALIRDKDLRTWFPIEYRYVKADDIPLSMFEGRDSCSISVHQHYSMDHHNFFAAVEPIFWKYAGRPHWGKLHGLNAHQLQGLYPRWKAFAEVRQALDPRGRFLNAHLSSILGVTKLAAALEHHHHHH,not soluble
14,SFSWLLRLCQKENGDEGDTRPTKKEEGILSHEKGRRKSFWRRHRSARNTSTQNSNITNQISNINKVRELKLDMRKISNDMEEMCGILNLYMYEDLNYRMNTEFNIIKSQHEKTMLDMDKMTQSIIASMKFSEELLKDNYSYSIKQKRGSVRRPARTCVSQVPRSSRCDHEIPQISDPDGSLHSSWDLGSIVSSEPD,soluble
15,MSLAMSKVKSITRESWILSTFPEWGSWLNEEIEQEQVAPGTFAMWWLGCTGIWLKSEGGTNVCVDFWCGTGKQSHGNPLMKQGHQMQRMAGVKKLQPNLRTTPFVLDPFAIRQIDAVLATHDHNDHIDVNVAAAVMQNCADDVPFIGPKTCVDLWIGWGVPKERCIVVKPGDVVKVKDIEIHALDAFDRTALITLPADQKAAGVLPDGMDDRAVNYLFKTPGGSLYHSGDSHYSNYYAKHGNEHQIDVALGSYGENPRGITDKMTSADMLRMGEALNAKVVIPFHHDIWSNFQADPQEIRVLWEMKKDRLKYGFKPFIWQVGGKFTWPLDKDNFEYHYPRGFDDCFTIEPDLPFKSFLEGGSHHHHHH,soluble
16,MKTISNEQLTIQVSPHGAELCSIFANGKEYLWQADPAFWKRHSPVLFPIVGSVWENQYRNEGIAYTLSQHGFARDMEFTLVSEKEDEVRYHLVSNEETLRKFPFPFCLEIGYRIQGKQIEVIWEVKNTGEKEMYFQIGAHPAFYWPDFNADTQNRGFFGFDKEEGLKYILISEKGCADPSTEYSLELTDGLLPLDTHTFDKDALIIENEQIHKVTLYTKEKKAYLSLHFHAPVVGLWSPPAKNAPFVCIEPWYGRCDRAHYTGEYKDKDWMQHLQPEETFRGGYTIEIDELEHHHHHH,not soluble
17,MRLLVMVFTSDKKLVEEIKREVERRGFRVRDVQSPDELRRDLEKLLREHNAQFVIIVVTDKEWAKEALKKAKEEGVQIFLILWDTNEDELRKFREEVERKGVDVRTATSPDDVKDIVREFLERVGSHHHHHH,soluble
18,MADRIELRGLTVHGRHGVYDHERVAGQRFVIDVTVWIDLAEAANSDDLADTYDYVRLASRAAEIVAGPPRKLIETVGAEIADHVMDDQRVHAVEVAVHKPQAPIPQTFDDVAVVIRRSRRGGRGWVVPAGGAV,soluble
19,MSLHGVPFGTVPPMGTIGLIAAMPDEIRPFLRLASPAARLHGGRFPIWRLRVGNDDIVLVESGMGIDRATAATDALVAAASPVAILSFGFGGAALPGLKVGDLAVGMTSWFAGTEGIVLRRGIDRNLAEKLAEELNRICNGVTRGEIITSARILKKGDLAHSLPNGISSPILDMETAAVAEAAHRRGIPIVALRAISDDAEEELSFSLDEFTDDDMAIRPRKVLATIARKPWIIPQLLRLARNSRIAGKRLAQGVLATAEFLSRGEGHHHHHH,not soluble
20,MSLALAIFDLDETLIHGDCASLWSEQMARLGWVDGKDFLRRDHELMEAYGRGHLQMEDYMAFSLEPIAGRTLEEVEHLVAPWVEEVIEPIIYGDACRCIAEHRKRGDRILIISASGTHLVGPIAARLGVDEYLAIELEAVNGVYTGKTHGVLTYREGKITRLLEWLDQEQENLEGASFYSDSRNDLPLLLRVDHPHVVNPDAVLREHAEINGWPTLSWSEGHHHHHH,soluble
